Measurements: publication PMC11726873

Biological target: PALB2 construct (UniProt Q86YC2)
Assay: ITC; BRCA1 (control 0.6 mM, 17 injections; modified 0.255 mM, 32 injections) titrated into PALB2 at 0.06 mM in the cell; 25 °C; 50 mM NaCl, 25 mM sodium phosphate, pH 6.5; single binding site model

UniProt Q86YC2, sequence (Q86YC2 whole entry): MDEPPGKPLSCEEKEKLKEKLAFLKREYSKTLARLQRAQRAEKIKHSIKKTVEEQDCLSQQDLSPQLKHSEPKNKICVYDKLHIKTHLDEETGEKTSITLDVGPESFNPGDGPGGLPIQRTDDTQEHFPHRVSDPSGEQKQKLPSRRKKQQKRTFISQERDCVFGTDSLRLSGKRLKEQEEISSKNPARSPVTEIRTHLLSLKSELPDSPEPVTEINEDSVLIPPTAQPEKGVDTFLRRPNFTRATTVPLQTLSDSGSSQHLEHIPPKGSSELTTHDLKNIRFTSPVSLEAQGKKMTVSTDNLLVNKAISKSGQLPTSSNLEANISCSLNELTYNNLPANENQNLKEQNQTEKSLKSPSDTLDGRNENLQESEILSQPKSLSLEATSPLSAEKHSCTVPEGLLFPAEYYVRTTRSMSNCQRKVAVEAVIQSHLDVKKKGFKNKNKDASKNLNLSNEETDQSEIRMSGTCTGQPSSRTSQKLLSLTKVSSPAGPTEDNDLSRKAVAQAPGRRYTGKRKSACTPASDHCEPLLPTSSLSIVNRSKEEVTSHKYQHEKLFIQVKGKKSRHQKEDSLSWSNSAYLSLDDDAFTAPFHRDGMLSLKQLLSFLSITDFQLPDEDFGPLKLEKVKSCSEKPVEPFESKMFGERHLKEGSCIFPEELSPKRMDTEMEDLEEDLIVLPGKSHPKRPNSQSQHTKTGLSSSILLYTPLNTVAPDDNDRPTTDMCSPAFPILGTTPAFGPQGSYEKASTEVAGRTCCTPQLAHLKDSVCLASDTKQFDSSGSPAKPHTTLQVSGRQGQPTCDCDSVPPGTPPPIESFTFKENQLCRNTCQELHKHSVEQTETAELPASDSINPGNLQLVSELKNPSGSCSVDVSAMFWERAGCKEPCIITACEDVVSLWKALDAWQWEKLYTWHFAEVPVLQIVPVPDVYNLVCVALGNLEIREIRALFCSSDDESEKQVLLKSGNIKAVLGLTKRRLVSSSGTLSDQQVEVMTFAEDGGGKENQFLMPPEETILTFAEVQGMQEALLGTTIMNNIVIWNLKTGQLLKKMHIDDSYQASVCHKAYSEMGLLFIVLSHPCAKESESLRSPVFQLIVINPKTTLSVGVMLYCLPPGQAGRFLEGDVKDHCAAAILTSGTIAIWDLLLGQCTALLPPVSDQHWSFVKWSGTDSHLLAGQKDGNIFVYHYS

B1: BRCA1 disordered PALB2-binding domain, residues 1377-1426, modified with dichlorotriazine 1 (indole-labeled) (domain or fragment)
chain: GPGSSVSEDCSGLSSQSDILTTQQRDTMQHNLIKLQQEMAELEAVLEQHGSQPS
modifications: a single 272 Da indole incorporation from dichlorotriazine 1; site not determined by MS/MS, the single lysine (residue 1406 in BRCA1) is the intended site
Kd: 3 µM

B2: BRCA1 disordered PALB2-binding domain, residues 1377-1426, control (unmodified) preparation (domain or fragment)
chain: B1 chain
Kd: 4.1 µM
